Patent publication US20230213527A1 (QUANTUM SI, published 2023)
Square brackets hold non-standard residues; d marks the D form. Ends that are not written are not given here. Cit = NC(=O)NCCC[C@H](N)C(=O)O

Legend:
[1] = biological target: T1, … (SEQ ID NO: 836), state with N-terminal SDMA (human, symmetric dimethylarginine (SDMA) at position 2 of SEQ ID NO: 836 (N-terminal residue of this state); conjugated C-terminally to a macromolecular linker); assay: single-molecule on-chip dynamic sequencing
T1 construct: residue range inferred

[2] = biological target: T2, QP789, LCitLAFAYPDDDK (SEQ ID NO: 839), state with N-terminal citrulline (CitLAFAYPDDDK); assay: single-molecule on-chip dynamic sequencing
T2 construct: residue range inferred
T2 peptide: [Cit]LAFAYPDDDK

[3] = biological target: T3, QP748, … (SEQ ID NO: 915), state with N-terminal arginine; assay: single-molecule on-chip sequencing with PS621, PS610 and PS961; average of 10 sequencing reactions
T3 construct: State after aminopeptidase cleavage of the N-terminal leucine; residue range inferred; also called R-X peptide, X = S
T3 peptide: RSAFAYPDDDK

[4] = biological target: T4, QP938, … (SEQ ID NO: 919), state with N-terminal arginine; assay: as above
T4 construct: State after aminopeptidase cleavage of the N-terminal leucine; residue range inferred; also called R-X peptide, X = E
T4 peptide: REAFAYPDDDK

[5] = biological target: T5, QP942, … (SEQ ID NO: 921), state with N-terminal arginine; assay: as above
T5 construct: State after aminopeptidase cleavage of the N-terminal leucine; residue range inferred; also called R-X peptide, X = T
T5 peptide: RTAFAYPDDDK

[6] = biological target: T6, QP941, … (SEQ ID NO: 923), state with N-terminal arginine; assay: as above
T6 construct: State after aminopeptidase cleavage of the N-terminal leucine; residue range inferred; also called R-X peptide, X = Q
T6 peptide: RQAFAYPDDDK

[7] = biological target: T7, QP746, … (SEQ ID NO: 913), state with N-terminal arginine; assay: as above
T7 construct: State after aminopeptidase cleavage of the N-terminal leucine; residue range inferred; also called R-X peptide, X = Y
T7 peptide: RYAFAYPDDDK

[8] = biological target: T8, QP749, … (SEQ ID NO: 911), state with N-terminal arginine; assay: as above
T8 construct: State after aminopeptidase cleavage of the N-terminal leucine; residue range inferred; also called R-X peptide, X = I
T8 peptide: RIAFAYPDDDK

[9] = biological target: T9, QP747, … (SEQ ID NO: 917), state with N-terminal arginine; assay: as above
T9 construct: State after aminopeptidase cleavage of the N-terminal leucine; residue range inferred; also called R-X peptide, X = A
T9 peptide: RAAFAYPDDDK

[10] = biological target: T10, QP707, … (SEQ ID NO: 817), state with N-terminal arginine (RLAFAYPDDDK); assay: as above
T10 construct: residue range inferred from the recognized N-terminal residue; also called R-X peptide, X = L
T10 peptide: RLAFAYPDDDK

[11] = biological target: T11, QP943, … (SEQ ID NO: 925), state with N-terminal arginine; assay: as above
T11 construct: State after aminopeptidase cleavage of the N-terminal leucine; residue range inferred; also called R-X peptide, X = V
T11 peptide: RVAFAYPDDDK

[12] = biological target: T7, QP746, … (SEQ ID NO: 913), state with …; assay: cell-based or functional assay
[13] = biological target: T8, QP749, … (SEQ ID NO: 911), state with …; assay: cell-based or functional assay
[14] = biological target: T10, QP707, … (SEQ ID NO: 817), state with …; assay: cell-based or functional assay
[15] = biological target: T11, QP943, … (SEQ ID NO: 925), state with …; assay: cell-based or functional assay
[16] = biological target: T12, QP706, vimentin peptide fragment … (SEQ ID NO: 841), state with N-terminal arginine (RFLEQQNK); assay: single-molecule on-chip sequencing of QP706 with PS610, PS1220 and PS1223; RFL cluster in bin ratio v. pulse duration plot
T12 construct: residue range inferred from the printed segment
T12 peptide: RFLEQQNK
Method: (§1) Sequencing reactions using the recognizers PS610 (FYW), PS1220 (R), and PS1223 (LIV) were performed separately for the QP706 and QP1073 peptide fragments. Each recognizer was labeled with a unique dye and/or unique number of dyes. A scatter plot of bin ratio v. pulse duration is shown for the QP706 peptide fragment in FIG. 18A and for the QP1073 peptide fragment in FIG. 18B. In the plot of FIG. 18A, three clusters corresponding to FLE, LEQ, and RFL segments are visible. […] In the plot of FIG. 18B, two clusters corresponding to FLE and LEQ segments are visible, but there is no cluster corresponding to RFL.

[17] = biological target: T13, QP1073, citrullinated vimentin peptide fragment VCitFLEQQNK (SEQ ID NO: 842), state with N-terminal …; assay: single-molecule on-chip dynamic sequencing; bin ratio v. pulse duration clusters
T13 construct: residue range inferred
T13 peptide: [Cit]FLEQQNK
Method: as §1

[18] = biological target: T14, QP706, vimentin peptide fragment … (SEQ ID NO: 841), state with N-terminal leucine (LEQQNK); assay: single-molecule on-chip sequencing of QP706 with PS610, PS1220 and PS1223; LEQ cluster in bin ratio v. pulse duration plot
T14 construct: residue range inferred from the printed segment
T14 peptide: LEQQNK
Method: as §1

[19] = biological target: T15, QP1073, citrullinated vimentin peptide fragment VCitFLEQQNK (SEQ ID NO: 842), state with N-terminal leucine …; assay: single-molecule on-chip sequencing of QP1073 with PS610, PS1220 and PS1223; bin ratio v. pulse duration plot
T15 construct: State after aminopeptidase cleavage
T15 peptide: LEQQNK
Method: as §1

[20] = biological target: T16, QP1032, IRLAFAYPDDDK (SEQ ID NO: 849); assay: single-molecule on-chip sequencing; recognition of the N-terminal amino acid
T16 peptide: IRLAFAYPDDDK
Method: (§2) In this example, sequencing reactions were conducted for 4 pairs of unmodified and citrullinated peptides: QP1028 & QP1029, QP1030 & QP1031, QP1032 & QP1033, and QP707 & QP789. […] For the QP1028 & QP1029 and QP1030 & QP1031 pairs, sequencing reactions were conducted using the PS610 (FYW) recognizer. For the QP1032 & QP1033 and QP707 & QP789 pairs, sequencing reactions were conducted using the PS1223 (LIV) recognizer.

[21] = biological target: T17, QP707, LRLAFAYPDDDK (SEQ ID NO: 817) (not fully specified (C-terminus); also: surface-immobilized through C-terminal linker); assay: as above
T17 construct: Intact peptide, N-terminal leucine; surface-immobilized through a C-terminal linker
T17 peptide: LRLAFAYPDDDK
Method: as §2

[22] = biological target: T18, QP789, LCitLAFAYPDDDK (SEQ ID NO: 839) (also: C-terminal azidolysine (general statement for all synthetic peptides)); assay: as above
T18 construct: Intact peptide, N-terminal leucine
T18 peptide: L[Cit]LAFAYPDDDK-NH2
Method: as §2

[23] = biological target: T19, QP1033, ICitLAFAYPDDDK (SEQ ID NO: 850) (also: C-terminal azidolysine (general statement for all synthetic peptides)); assay: as above
T19 peptide: I[Cit]LAFAYPDDDK-NH2
Method: as §2

B1: PS621 (other)
chain: MHSKFSHAGRICGAKFKVGEPIYRCKECSFDDTCVLCVNCFNPKDHTGHHVYTTICTEFNNGICDCGDKEAWNHTLFCKAEEG
notes: Dye-labeled N-terminal arginine recognizer; also called PS621 (R)
binding result [1]: no binding | binding result [2]: no binding | PW of R-X [3]: < 0.12 s | PW of R-X [4]: < 0.06 s | PW of R-X [5]: < 0.06 s | PW of R-X [6]: < 0.06 s | PW of R-X [7]: 0.18 s | PW of R-X [8]: 0.28 s | PW of R-X [9]: < 0.12 s | PW of R-X [10]: 0.47 s | PW of R-X [11]: 0.41 s | RS R-X [12]: 9.6 min | RS R-X [13]: 15.4 min | RS R-X [14]: 17.3 min | RS R-X [15]: 25.5 min

B2: PS1220 (designed binder)
chain: MHSKFSHAGRICGAKFKVGEPIYRCKECSFDDTCVLCVNCFNPKDHLGHHVYTTICTEFNNGECDCGDKTAWNHTLFCKAEEGSAGSAAGSGEFMHSKFSHAGRICGAKFKVGEPIYRCKECSFDDTCVLCVNCFNPKDHLGHHVYTTICTEFNNGECDCGDKTAWNHTLFCKAEEG
notes: also called PS1220 (R)
binding result [16]: binds | binding result [17]: no binding

B3: PS1223 (designed binder)
chain: MPTAASATESAIEDTPAPARPEVDGRTKPKRQPRYHVVLWDDDDHTYQYVVVMLRSLFGHPPSRGYRMAKEMDTQGRVIVLTTTREHAELKRDQIHAFGRDRLLARSKGSMKASIEAEEGSAGSAAGSGEFGSAGSAAGSGEFGSAGSAAGSGEFMPTAASATESAIEDTPAPARPEVDGRTKPKRQPRYHVVLWDDDDHTYQYVVVMLRSLFGHPPSRGYRMAKEMDTQGRVIVLTTTREHAELKRDQIHAFGRDRLLARSKGSMKASIEAEE
notes: also called PS1223 (LIV)
binding result [18]: binds | binding result [19]: binds | Pulse Width [20]: 0.58 s | Pulse Width [21]: 0.42 s | Pulse Width [22]: 0.92 s | Pulse Width [23]: 0.84 s
